Patent US20150166668A1 (PROMIS NEUROSCIENCES, published 2015)

Legend:
[1] = target: PrP on the surface of normal cells (human) (UniProt P04156)
[2] = target: PrP on the surface of normal cells (human) (UniProt P04156); assay: flow cytometry on HOEpiC Donor 1 normal ovarian epithelium
[3] = target: PrP on the surface of normal cells (human) (UniProt P04156); assay: flow cytometry on HOEpiC Donor 2 normal ovarian epithelium
[4] = target: PrP on the surface of normal cells (human) (UniProt P04156); assay: flow cytometry on HOEpiC Donor 3 normal ovarian epithelium
BSA-DSE3 peptide = target: T1, BSA-DSE3 peptide (human); assay: ELISA, plate coated with BSA-peptide
T1 construct: also called immunogen peptides; specific peptide

Anti-PrP 6H4 antibody gave an EC50 [1] of 17 nM, an Ave S/N [2] of 8.31 and an Ave S/N [3] of 14.2. It also gave an Ave S/N [4] of 15.1.

B1: DSE3 ab120 (antibody, V domains shown)
VH: QSVEESGGHLVTPGTPLTLTCTVSGIDLSTYAMGWVRQAPGKGLEWIGVITKSGNTYYASWAKGRFAISKTSTTVDLKITSPTTEDTATYFCGRYGIGVSYYDIWGPGTLVTVSS
VL: AQVLTQTPSPVSAAVGGTVTINCQSSQSLYNKNWLSWYQKKPGQPPKLLIYKASTLESGVSSRFKGSGSGTQFTLTISGVQCDDAATYYCQGEFSCSSADCTAFGGGTEVVVKG
Work on B1 yielded an EC50 (BSA-DSE3 peptide) of 0.0655 nM.
